From paper PMC3215730

Experiments:
[1] = target: Baculovirus-produced recombinant purified active human Src (kinase assays) (human) (UniProt P12931); test: kinase activity titration (filter-binding Src kinase assay, kinetic fit)
[2] = target: Baculovirus-produced recombinant purified active human Src (kinase assays) (human) (UniProt P12931); test: kinase activity titration (filter-binding Src kinase assay, kinetic fit); apparent; increasing RIL alone titrated in the Src kinase reaction with peptide and ATP substrates

## NS1 wild type (230 aa) from A/Turkey/Italy/977/99 H7N1 (F3) (natural protein)
[1]
  Kd: 400 nM

B1: recombinant human GST-tagged RIL (natural protein)
chain: MPHSVTLRGPSPWGFRLVGGRDFSAPLTISRVHAGSKAALAALCPGDLIQAINGESTELMTHLEAQNRIKGCHDHLTLSVSRPEGRSWPSAPDDSKAQAHRIHIDPEIQDGSPTTSRRPSGTGTGPEDGRPSLGSPYGQPPRFPVPHNGSSEATLPAQMSTLHVSPPPSADPARGLPRSRDCRVDLGSEVYRMLREPAEPVAAEPKQSGSFRYLQGMLEAGEGGDWPGPGGPRNLKPTASKLGAPLSGLQGLPECTRCGHGIVGTIVKARDKLYHPECFMCSDCGLNLKQRGYFFLDERLYCESHAKARVKPPEGYDVVAVYPNAKVELV
[1]
  Kd RIL in the presence of F4 (Δ225–230): 230 nM
  Kd RIL in the presence of F6 (Δ221–230): 470 nM
[2]
  Kd: 80 nM
